Measurements: patent US20130316910A1 (UNIVERSITY OF TOKYO, published 2013)

Molecular target: T1, Bcl-2 protein having His tag on the C terminal side (UniProt P10415 1-211, limits assumed)
T1 construct: Immobilised through its His tag on a Ni-loaded SPR substrate; not shown: C-terminal His tag
Assay: SPR, His-tagged Bcl-2 immobilised on Ni substrate, peptide in solution
Description: Next, a crosslinked peptide having the amino acid sequence as shown in the above table was synthesized by using a Fmoc solid-phase method and its binding ability was evaluated by calculating a dissociation constant (KD) in accordance with an evaluation method using SPR (Surface Plasmon Resonance).
Described specifically, first, a solution containing NiCl₂ was applied on a substrate to which Ni could be bound and then Bcl-2 protein having His tag on the C terminal side thereof was applied to immobilize the protein on the substrate. Then, a solution containing a solid-phase synthesized peptide was added successively while appropriately changing the concentration. During addition, a change in refractive index depending on the weight on the substrate was read and bond strength was evaluated based on the binding rate and dissociation rate of the peptide calculated.

T1 sequence (P10415 1-211 limits assumed): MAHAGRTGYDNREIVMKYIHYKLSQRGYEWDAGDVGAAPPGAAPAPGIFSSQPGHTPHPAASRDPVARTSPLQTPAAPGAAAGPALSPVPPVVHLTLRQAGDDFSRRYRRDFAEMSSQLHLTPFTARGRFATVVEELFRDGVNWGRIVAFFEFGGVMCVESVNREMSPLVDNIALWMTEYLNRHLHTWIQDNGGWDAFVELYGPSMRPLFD

Kd | Binder
~14 nM | Ac-FFNRHNNAYYTAGYAALGRLYRLL-NH2 [A-4A]
15 nM | Ac-FPHATIAARADSYDSYVRLAATFL-NH2 (by the library design Ala stands where the special amino acid and Cys would be) [A-1A]
3.6 nM | Ac-FPHATIAARADSYDSYVRLVATFR-NH2 [A-2A]
0.58 nM | Ac-FIIARFSALADSYDASRHIF-NH2 [A-5A]
